Assay results as given in the supplement of paper PMC10567573.

B1: BTBD10 (parent)
chain: FVYENAKEGARNIRTSERVTLIVD

Variants of: B1
Assay: protein stability index of a GFP-peptide fusion (GPS, HEK-293T) (PSI 1-6); higher = more stable
Conditions: c terminus: a fixed tail appended
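Also: lentivirally expressed fusions sorted by FACS into six bins by GFP to DsRed ratio, PSI derived from sequencing read proportions per bin multiplied by bin number.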

| Variant | protein stability index |
| --- | --- |
| YVYENAKEGARNIRTSERVTLIVD [F1Y] | 2.27 |
| CVYENAKEGARNIRTSERVTLIVD [F1C] | 2.5 |
| EVYENAKEGARNIRTSERVTLIVD [F1E] | 3.94 |
| TVYENAKEGARNIRTSERVTLIVD [F1T] | 3.06 |
| IVYENAKEGARNIRTSERVTLIVD [F1I] | 2.71 |
| VVYENAKEGARNIRTSERVTLIVD [F1V] | 3.7 |
| DVYENAKEGARNIRTSERVTLIVD [F1D] | 3.29 |
| QVYENAKEGARNIRTSERVTLIVD [F1Q] | 2.9 |
| AVYENAKEGARNIRTSERVTLIVD [F1A] | 3.21 |
| GVYENAKEGARNIRTSERVTLIVD [F1G] | 3.33 |
| HVYENAKEGARNIRTSERVTLIVD [F1H] | 3.69 |
| KVYENAKEGARNIRTSERVTLIVD [F1K] | 3.28 |
| NVYENAKEGARNIRTSERVTLIVD [F1N] | 3.75 |
| FVYEKAKEGARNIRTSERVTLIVD [N5K] | 1.94 |
| FVYEEAKEGARNIRTSERVTLIVD [N5E] | 2.35 |
| FVYEGAKEGARNIRTSERVTLIVD [N5G] | 2.47 |
| FVYEQAKEGARNIRTSERVTLIVD [N5Q] | 2.64 |
| FVYEMAKEGARNIRTSERVTLIVD [N5M] | 1.61 |
| FVYEYAKEGARNIRTSERVTLIVD [N5Y] | 1.61 |
| FVYEHAKEGARNIRTSERVTLIVD [N5H] | 2.19 |
| FVYEWAKEGARNIRTSERVTLIVD [N5W] | 3.23 |
| FVYEFAKEGARNIRTSERVTLIVD [N5F] | 1.9 |
| FVYETAKEGARNIRTSERVTLIVD [N5T] | 2.25 |
| FVYERAKEGARNIRTSERVTLIVD [N5R] | 1.95 |

| Variant | protein stability index |
| --- | --- |
| FVYEPAKEGARNIRTSERVTLIVD [N5P] | 2.52 |
| FVYEAAKEGARNIRTSERVTLIVD [N5A] | 1.9 |
| FVYEIAKEGARNIRTSERVTLIVD [N5I] | 1.61 |
| FVYECAKEGARNIRTSERVTLIVD [N5C] | 2.42 |
| FVYEVAKEGARNIRTSERVTLIVD [N5V] | 1.63 |
| FVYESAKEGARNIRTSERVTLIVD [N5S] | 1.54 |
| FVYELAKEGARNIRTSERVTLIVD [N5L] | 1.34 |
| FVYEDAKEGARNIRTSERVTLIVD [N5D] | 2.21 |
| FYYENAKEGARNIRTSERVTLIVD [V2Y] | 2.45 |
| FIYENAKEGARNIRTSERVTLIVD [V2I] | 2.37 |
| FHYENAKEGARNIRTSERVTLIVD [V2H] | 3.07 |
| FPYENAKEGARNIRTSERVTLIVD [V2P] | 3.53 |
| FTYENAKEGARNIRTSERVTLIVD [V2T] | 3.08 |
| FKYENAKEGARNIRTSERVTLIVD [V2K] | 3.06 |
| FRYENAKEGARNIRTSERVTLIVD [V2R] | 3.04 |
| FFYENAKEGARNIRTSERVTLIVD [V2F] | 2.31 |
| FQYENAKEGARNIRTSERVTLIVD [V2Q] | 3.07 |
| FCYENAKEGARNIRTSERVTLIVD [V2C] | 2.33 |
| FEYENAKEGARNIRTSERVTLIVD [V2E] | 3.83 |
| FAYENAKEGARNIRTSERVTLIVD [V2A] | 2.78 |
| FNYENAKEGARNIRTSERVTLIVD [V2N] | 3.58 |
| FGYENAKEGARNIRTSERVTLIVD [V2G] | 3.31 |
| FWYENAKEGARNIRTSERVTLIVD [V2W] | 1.97 |
| FSYENAKEGARNIRTSERVTLIVD [V2S] | 3.27 |

| Variant | protein stability index |
| --- | --- |
| FLYENAKEGARNIRTSERVTLIVD [V2L] | 2.41 |
| FMYENAKEGARNIRTSERVTLIVD [V2M] | 2.6 |
| FDYENAKEGARNIRTSERVTLIVD [V2D] | 3.56 |
| FVYENSKEGARNIRTSERVTLIVD [A6S] | 1.78 |
| FVYENPKEGARNIRTSERVTLIVD [A6P] | 2.41 |
| FVYENKKEGARNIRTSERVTLIVD [A6K] | 2.13 |
| FVYENEKEGARNIRTSERVTLIVD [A6E] | 2.8 |
| FVYENLKEGARNIRTSERVTLIVD [A6L] | 1.69 |
| FVYENRKEGARNIRTSERVTLIVD [A6R] | 1.84 |
| FVYENYKEGARNIRTSERVTLIVD [A6Y] | 1.57 |
| FVYENGKEGARNIRTSERVTLIVD [A6G] | 1.97 |
| FVYENMKEGARNIRTSERVTLIVD [A6M] | 2.08 |
| FVYENVKEGARNIRTSERVTLIVD [A6V] | 1.85 |
| FVYENCKEGARNIRTSERVTLIVD [A6C] | 1.82 |
| FVYENQKEGARNIRTSERVTLIVD [A6Q] | 1.96 |
| FVYENHKEGARNIRTSERVTLIVD [A6H] | 2.1 |
| FVYENNKEGARNIRTSERVTLIVD [A6N] | 2.43 |
| FVYENIKEGARNIRTSERVTLIVD [A6I] | 1.79 |
| FVYENWKEGARNIRTSERVTLIVD [A6W] | 2.05 |
| FVYENDKEGARNIRTSERVTLIVD [A6D] | 2.67 |
| FVYENFKEGARNIRTSERVTLIVD [A6F] | 1.8 |
| FVYENTKEGARNIRTSERVTLIVD [A6T] | 2.5 |
| FVYENAREGARNIRTSERVTLIVD [K7R] | 1.86 |
| FVYENATEGARNIRTSERVTLIVD [K7T] | 2.11 |

| Variant | protein stability index |
| --- | --- |
| FVYENAPEGARNIRTSERVTLIVD [K7P] | 2.4 |
| FVYENAFEGARNIRTSERVTLIVD [K7F] | 1.85 |
| FVYENAMEGARNIRTSERVTLIVD [K7M] | 1.82 |
| FVYENACEGARNIRTSERVTLIVD [K7C] | 2.32 |
| FVYENAEEGARNIRTSERVTLIVD [K7E] | 2.74 |
| FVYENAIEGARNIRTSERVTLIVD [K7I] | 2.5 |
| FVYENASEGARNIRTSERVTLIVD [K7S] | 2.56 |
| FVYENAGEGARNIRTSERVTLIVD [K7G] | 1.99 |
| FVYENALEGARNIRTSERVTLIVD [K7L] | 1.42 |
| FVYENAHEGARNIRTSERVTLIVD [K7H] | 1.95 |
| FVYENADEGARNIRTSERVTLIVD [K7D] | 2.58 |
| FVYENAAEGARNIRTSERVTLIVD [K7A] | 2.23 |
| FVYENAVEGARNIRTSERVTLIVD [K7V] | 1.93 |
| FVYENANEGARNIRTSERVTLIVD [K7N] | 2.54 |
| FVYENAWEGARNIRTSERVTLIVD [K7W] | 1.63 |
| FVYENAQEGARNIRTSERVTLIVD [K7Q] | 2.19 |
| FVYENAYEGARNIRTSERVTLIVD [K7Y] | 1.75 |
| FVYENAKCGARNIRTSERVTLIVD [E8C] | 2.11 |
| FVYENAKAGARNIRTSERVTLIVD [E8A] | 1.52 |
| FVYENAKFGARNIRTSERVTLIVD [E8F] | 1.86 |
| FVYENAKGGARNIRTSERVTLIVD [E8G] | 1.86 |
| FVYENAKDGARNIRTSERVTLIVD [E8D] | 2.28 |
